Laboratory results from the supplement of paper PMC9170038.

Each sequence was assayed on MS2 coat protein (assay: apparent KD of MS2 coat protein; higher = weaker reporter binding). Settings: Eterna round: R107; input ligand: arginine 13.2 mM.
Procedure: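 RNA-MaP round R107: designed RNA switches with theophylline, tryptophan, arginine or FMN aptamers are transcribed on-chip within common flanks. They are titrated with SNAP-549-labelled MS2 coat protein in RNA-MaP buffer (100 mM Tris pH 7.5, 80 mM KCl, 4 mM MgCl2), without ligand or with the indicated ligand. Median apparent KD per design.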

| Sequence | apparent KD of MS2 coat protein [µM] |
| --- | --- |
| GGGAUAUCCCGAAGGAGCGCGAGAUGCUGUGCUGCAUUCCUCACAUGAGGAUCACCCAUGUCGCAGGUAGGUCGCGGGAUAUCCC [#16 Exclusion - Arginine B] | 0.151 |
| AAUAAUAACAUGGGUGAAGUCGUACCAUAACGAGGACCGGUACGGCCGCCACUCGAACAUGAGGAUCACCCAUGUAGGUACGACA [M'-T'-T-MS2-T'' - Design 9] | 0.0376 |
| UGGGUACAUGAGGAUCACCCAUGUACUGAAGGAGCGAGAAUUAUCUCAGGUAGGUCGCAGACAUGAGGAUCACCCAUGUAGUAGG [Exclusion Arginine A GF 12] | 0.0253 |
| UGUAUGUGAUCUGAUACCAGAGUGAAUAAACCUGAGGAUCACCCUGGUAGGCGAAAGCCACUCCCUUGGCAGCAGAUCGCAUACU | 0.102 |
| UGUUUGGUGCGCGAGUGUUGGAUAAUUGAUACCAGUGAAGAAGAGCGCCCUUGGCAGCGAAUCCUAACAUGAGGAUCACCCAUGU [5.U] | 0.0415 |
| CGAUCUUUCGAAAGAAGGAUCGAGUCUGAUACCAGAGACGAAAGUCUCCCUUGGCAGCAGUGCCAACAUGAGGAUCACCCAUGUU [Theophylline A 10] | 0.0162 |
| AAACAUGAGGAUCACCCAUGUCCUCCUGUCCGAGGACCGGUACGGCCGCCACUCGGUUCUCGGGAGGAUGGUCAAAGACUAUCCA [Omei Trp A SS B v9] | 0.12 |
| ACAUGAGGAUCACCCAUGUACGAGUCGGAAGGAGCGGCAAUUAAGCCAGGUAGGUCGCCGGCAGAGAGUGUCAUUGUAAGUAUGA [Same State - Arginine A / A] | 0.0142 |
| UGCGAUUGCUCAGAUACCAGACAUGAGGAUCACCCAUGUACCAAGGUAAAGAAAUAACGUGUCCCUUGGCAGCUGAGCAAUCGCU [MAT - Exclusion Theophlline B - Mod of Eli - D9] | 0.0119 |
| CCCUGGGUGGGAAGGAGCGCAUAGUGAACAUGAGGAUCACCCAUGUGUAGACGUGAGUCACUGCAGGUAGGUCGCCCACCCAGGG [SS-ArgB23] | 0.0195 |
| GGUCGCCAACAUGGGUGGGCGACCCUGGAAGGAGCGAGCGAGAGCUCAGGUAGGUCGCCAGAACAUGAGGAUCACCCAUGUAAUA [(A)''-(M)'-(A)'(Arg1)-(Arg2)-(M1)-(M2)_Design13] | 0.0708 |
| GGAUAGGACAGAAGGAGCGACAUGCGACGAAAGUCGAAAAGAUCACAUGAGGAUCACCCAUGUCAGGUAGGUCGCUGUCCUAUCG [ArgXB 10 #Zipper #MS2Left #StaticStem #Blueprint] | 0.119 |
| ACGAUAGGACUUGAGGAACACCCAAGUGAUACCAGCCUGGAAACAGGCCCUUGGCAGCACUAAUACUCCAAUAACCUAUCGAAUA [TheoAX 15 #MicroSwitchBubble #AlternativeMS2] | 0.14 |
| UGUGUGUGACCAGGAAAUGGUCACACACAGCGAGGACCGGUACGGCCGCCACUCGGCCGUACAUGAGGAUCACCCAUGUCGGGUA [#1 Same State - Tryptophan A Attempt #9 (HarryS)] | 0.0996 |
| AGAGGUAUACAUGGAAACAUGUAUAUUUCACGAGGACCGGUACGGCCGCCACUCGGUACCGGAAACACAUGAGGAUCACCCAUGU [Ex_TrypA - H1] | 0.017 |
| GCACCAGGUACGGAUACCAGCUGCCCGAGAUACAUGAGGAUCACCCAUGUGACCUGAUUUAGCCCUUGGCAGCUGUACCUGGUGC [SSThB NP+V+V2 #1] | 0.148 |
| AUUUAUUGUCGUGAUACCAGACAUACAUGAGGAUCACCCAUGUUAAGUAACUUUUUUCAGGUCCCUUGGCAGCACUUUUUAAUUA [JR_Nu_SSTheophyB_Sub019] | 0.0211 |
| CAAUGCAGGUCGGCCGCCACUACACACAUGAGGAUCACCCAUGUAGUUACUGGGUGAAGUGGCAGUAGGACCGGGACCUGCAUAA [Brourdmod02] | 0.143 |
| ACACAUGAGGAUCACCCAUGUGCGCUGGAAGGAGCGCAGAAUCAUGCAGGUAGGUCGCCAGUGCCUUUUGAUAAAGGGAAAAGAA [Cezaquce] | 0.0661 |
| AAUUUUAACGGAAGGAGCGUCACGUAAUUCAUACAUGAGGAUCACCCAUGUUAGUUGUAGAGACAGGUAGGUCGCCGUUAUUUGA [JR_AAArginiB_Sub025] | 0.0157 |

| Sequence | apparent KD of MS2 coat protein [µM] |
| --- | --- |
| UCGUUGAAGUCGGCCGCCACUGAACUCAUGUUCAACAUGAGGAUCACCCAUGUACCUUAUUUUAACAGGACCGGGACUUUGACGA [JR_ExcTryptoB_Sub002] | 0.113 |
| CGCACAGAGAAUGAUACCAGCGAGGAAGCGACAUGAGGAUCACCCAUGUGCGAAUGAUCCCGCCCUUGGCAGCGUAAGUGAUCCC [ss-theoB-?] | 0.0593 |
| AAACAUGAGGAUCACCCAUGUCCUCGUGAUCGAGGACCGGUACGGCCGCCACUCGGUCCUCGCGAGGUGGAGUCAAAGACUCCAA [Omei Trp A SS A v7] | 0.0739 |
| GGGUGGUAGGCGGCCGCCACUGAUUUUUAUAUAUAUAUGACAUGAGGAUCACCCAUGUAGAUAUGCAGGACCGGGCCUGUUGUUU [aaaN] | 0.0224 |
| GACAUGAGGAUCACCCAUGUAUUGGGUGAUACCAGCCUGAAUCAUGGCCCUUGGCAGCACCGCGCUAACUUUAUGUUUGCGAACC [Mavegeceri] | 0.095 |
| AAGGUGAUCCGUGAUACCAGCUCAACAUGAGGAUCACCCAUGUAAGCCUGGAAACAGGCGAGCCCUUGGCAGCACGGUAAUAAUA [(M)'-(Theo1)-(Ms2)-(Theo2)-(M'')] | 0.0126 |
| GGUUACUCUACGGCCGCCACUGGGCAUGUAAAUAACAUGAGGAUCACCCAUGUGGAUUAAUAUUACAGGACCGGGUAGUGUAACC [Tryptophan B 23] | 0.126 |
| GCGAUGGAGCGAAGGAGCGGCUAUCACCGACAAAACAUGAGGAUCACCCAUGUUGGCAGUGGCCAGGUAGGUCGCGCUCCAUCGC [EAB NP+V+V2 #8] | 0.00817 |
| UAUCCACAUGAGGAUCACCCAUGUUAGGAAGGAGCGGUGAAUGCACCAGGUAGGUCGCCUAGCUGAGGACUGUCGGUGGAUUCGU [Exclusion - Arginine A (Freestyle 19)] | 0.033 |
| AGCUCGCAUCCUCUAGCGUCAAAGACGCCUCGAGGACCGGUACGGCCGCCACUCGAGAUGAGGAUCACCCAUCUCAAAGCGAGCA [TrypAX 14 #SwitchBubble #AlternativeMS2 #MS2Late #CuTurnoff] | 0.0716 |
| GGUUACUCUACGGCCGCCACUGUAAAGUAAAUAUUAAUGUACAUGACAUGAGGAUCACCCAUGUACAGGACCGGGUAGUGUAACC [Tryptophan B 14] | 0.0455 |
| CGGUUGCCACAUGAGGAUCACCCAUGUGAAGGAGCGGCGAAUAAGCCAGGUAGGUCGCGCAUGAAUAAAUCAUGUUGGUGCCGAA [XArg-A 17 V2] | 0.0256 |
| GGGUACAUCGCGGCCGCCACUCAUGUAAAUUCAUGAGGAUCACCCAUGACGAUGGAGACAUCGGAGAGGACCGGGUGAUGUACCG | 0.0265 |
| CACAGUGCGAAAUUGAAUUCGCACGAUCCUCGAGGACCGGUACGGCCGCCACUCGCGCGGGUCGUACAUGAGGAUCACCCAUGUC [Zatiin] | 0.0413 |
| GUAUCUAUGUGAAAUAGAUAUGUAACUGAAGGAGCGUCAUUAAGGACAGGUAGGUCGCGGAGCACAUGAGGAUCACCCAUGUCGG [#09 Same State - Arginine A] | 0.0247 |
| GGCCCUGCGAGCGCUCGCAGGGCCGCGGAUACCAGCGAGGUCCAUCGCCCUUGGCAGCCGAACAUGAGGAUCACCCAUGUCGGUA [#1 Same State - Theophylline A Attempt #13 (HarryS)] | 0.00787 |
| ACAUGAGGAUCACCCAUGUUCCUCGCCGAUACCAGUGAAGAAUUACGCCCUUGGCAGCGGAAAGAGUGUUUUGGAGAUGAGGUAC [6.aA] | 0.0805 |
| CCACACAUGAGGAUCACCCAUGUAAUUGAUACCAGAUUUAAAUGAGUCCCUUGGCAGCAGUGAGCUAGAGUUGUCGUAUAUAUGG [Theo A SS t2] | 0.0142 |
| AAAAUAAACUCGGCCGCCACUCAACGGACCCUUUGGACAUGAGGAUCACCCAUGUAUUUUGGAAAGAGGACCGGGAGAAAUAAAA [Exclusion - Trytophan B] | 0.00832 |

Same assay, conditions: Eterna round: R107; input ligand: none

| Sequence | apparent KD of MS2 coat protein [µM] |
| --- | --- |
| GGGAUAUCCCGAAGGAGCGCGAGAUGCUGUGCUGCAUUCCUCACAUGAGGAUCACCCAUGUCGCAGGUAGGUCGCGGGAUAUCCC [#16 Exclusion - Arginine B] | 0.45 |
| AAUAAUAACAUGGGUGAAGUCGUACCAUAACGAGGACCGGUACGGCCGCCACUCGAACAUGAGGAUCACCCAUGUAGGUACGACA [M'-T'-T-MS2-T'' - Design 9] | 0.0866 |
